{
  "source": "the RNAGym collection of RNA variant scans (doi:10.7554/elife.90254)",
  "parents": {"B1": {"name": "LINE1-full (parent)", "chain": "UACGUAGGUGGUUUUCCCCUGAUAGUGCUAAGGGGGCCUGGAAGUUUGGACUGGGCAGAGCUCAACACAGCGUGGCAAAGUGGCUGUGGCUAGACUGCCUCUCUGGAUUCCUCGUCACUCAGCAGGGCAUCUCUGAGAGAAAUGCC"}},
  "data": [
    {"variants_of": "B1", "test": "self-cleavage, relative activity (ratio to wild type); higher = more cleavage; in vitro, sequencing; the parent is a self-cleaving ribozyme", "values": [
      {"variant": "UACGUAGGUGGUUUUCCCCUGAUAGUGCUAAGGGGGCCUGGAAGUUUGGACUGGGCUGAGCUCAACACAGCGUGGCAAAGUGGCUGUGGCUAGACUGCCUCUCUGGAUUCCUCGUCACCCAGCAGGGCAUCUCUGAGAGAAAUGCC", "note": "[A57U U119C]", "self-cleavage": 0.06},
      {"variant": "UACGUAGGUGGUUUUCCCCUGAUAGUACUAAGGGGGCCUGGAAGUUUGGACUGGGCAGAGCUCAGCACAGCGUGGCAAAGUGGCUGUGGCUAGACUGCCUCUCUGGAUUCCUCGUCACUCAGCAGGGCAUCUCUGAGAGAAAUGCC", "note": "[G27A A65G]", "self-cleavage": 0.05},
      {"variant": "UACGUAGGUGGUUUUCCCCUGAUAGUGCUAAGGGGGCCUGGAAGUUUGGACUGGGCAGAGCUCAACACAGCGUGGCAAAGUGGCUGUGGCUAGACAGCCUCUCUGGAUUCCUCGUCACUCAGCAGGGCAUCUCUGUGAGAAAUGCC", "note": "[U96A A136U]", "self-cleavage": 0.09},
      {"variant": "UACGUAGGUGGUUUUCCCCUGAUAGUGCUAAGGGCGCCUGGAAGUUUGGACUGGGCAGAGCUCAACACAGCGUGGCAAAGUGGCUGUGGCUAGACUGCCUCUCUGGAUUCCUCGUCACUCAGCAGGGCAUCUCUGAGAGAGAUGCC", "note": "[G35C A141G]", "self-cleavage": 0.61},
      {"variant": "UACGUAGGUGGUUUUCCCCUGAUAGUGCUAAGGGGGCCUGGAAGUUUGGACUGGGCAGAGCUCAACACUGCGUGGCAAAGUGGCUGUGGCUAGACUGCCUCUCUGGAUUCCUCGUCACUCAGCAGGGCAUCACUGAGAGAAAUGCC", "note": "[A69U U132A]", "self-cleavage": 0.06},
      {"variant": "UACGUAGGUGGUUUUCCCCCGAUAGUGCUAAGGGGGCCUGGAAGUUUGGACUGGGCAGAGCUCAACACAGCGUGGCAAAGUGGCUGUGGCUAGACUGCCUCUCUGGAUUCCUCGUCACUCAGCAGGGCAUCUCUGAGAGAACUGCC", "note": "[U20C A142C]", "self-cleavage": 1.88},
      {"variant": "UACGUAGGUGGUUUUCCCCUGAUAGUGCUAAGGGGGCCUGGAGGUUUGGACUGGGCAGAGCUCAACACAACGUGGCAAAGUGGCUGUGGCUAGACUGCCUCUCUGGAUUCCUCGUCACUCAGCAGGGCAUCUCUGAGAGAAAUGCC", "note": "[A43G G70A]", "self-cleavage": 0.11},
      {"variant": "UACGUAGGUGGUUUUCCCCUGAUAGUGCUAAGGGGGCCUGGAAGUUUGGACUGGGCAGAGCUCAACGCAGCGUGGCAAAGCGGCUGUGGCUAGACUGCCUCUCUGGAUUCCUCGUCACUCAGCAGGGCAUCUCUGAGAGAAAUGCC", "note": "[A67G U81C]", "self-cleavage": 0.35},
      {"variant": "UACGUAGGUGGUUUUCCCCUGAUAGUGCUAAGGGGGCCUGGAAGAGUGGACUGGGCAGAGCUCAACACAGCGUGGCAAAGUGGCUGUGGCUAGACUGCCUCUCUGGAUUCCUCGUCACUCAGCAGGGCAUCUCUGAGAGAAAUGCC", "note": "[U45A U46G]", "self-cleavage": 1.29},
      {"variant": "UACGUAGGUGGUUUUCCCCUGAUAGUGCUAAGGGGGCCUGGAAGUUUGGACUGGGCAGAGCUCAACACUGCGUGGCAAAGUGGCUGUGGCUAGACUGCCUCUCUGGAUUCCUCGACACUCAGCAGGGCAUCUCUGAGAGAAAUGCC", "note": "[A69U U115A]", "self-cleavage": 0.07},
      {"variant": "UACGUAGGAGGUUUUCCCCUGAUAGUGCUAAGGGCGCCUGGAAGUUUGGACUGGGCAGAGCUCAACACAGCGUGGCAAAGUGGCUGUGGCUAGACUGCCUCUCUGGAUUCCUCGUCACUCAGCAGGGCAUCUCUGAGAGAAAUGCC", "note": "[U9A G35C]", "self-cleavage": 1.87},
      {"variant": "UACGUAGGUGGUUUUCCCCUGAUAGUGCUAAGGGGGCCUGGAAGUUUGGACUGGGCAGAGCUCAACACAGCGUGGCAAAGUGGCUGUGGCUAGACUGCCUCUCUGGAUUCCUCGUCACUCAGCAGGGCAUCCCUGAGAGAAAUGCC", "note": "[U132C]", "self-cleavage": 1.35},
      {"variant": "UACGUAGGUGGUUUUCCCCUGAUAGUGCUAAGGGGGCCUGGAUGUUUGGACUGGGCAGAGCUCAACACAGCGUGGCAAAGUGGCUGUGGCUAGACUGCCUCUCUGGAUUCCUCGUCACUCAGCAGGGCAUCUCUGAGAGCAAUGCC", "note": "[A43U A140C]", "self-cleavage": 1.58},
      {"variant": "UACGUAGGUGGUUUUCCCCUGAUAGUGCUAAGGGGGCCUGGAAGUUUGGACUGGGCAGAGCUCAACACUGCGUGGCAAAGUGGCUGUGGCUAGACUGCCUCUCUGGAUUCCUCGUCACUCUGCAGGGCAUCUCUGAGAGAAAUGCC", "note": "[A69U A121U]", "self-cleavage": 0.05},
      {"variant": "UACGUAGGUGGUUUUCCCCUGAUAGUGCUAAGGGGGCCUGGAAGUUUGGACUGGGCAGAGCUCAACACAGCGUGGCAAUGUGGCUGUGGCUAGACUGCCUCUCUGGAUUACUCGUCACUCAGCAGGGCAUCUCUGAGAGAAAUGCC", "note": "[A79U C110A]", "self-cleavage": 1.64},
      {"variant": "UACGUAGGUGGUUUUCCCCUGAUAGUGCUAAGGGGACCUGGAAGCUUGGACUGGGCAGAGCUCAACACAGCGUGGCAAAGUGGCUGUGGCUAGACUGCCUCUCUGGAUUCCUCGUCACUCAGCAGGGCAUCUCUGAGAGAAAUGCC", "note": "[G36A U45C]", "self-cleavage": 1.81},
      {"variant": "UACGUAGGUGGUUUUCCCCUGAUAGUGCUAAGGGGGCCUGGAAGUUUGGACUGGGCAGUGCUCUACACAGCGUGGCAAAGUGGCUGUGGCUAGACUGCCUCUCUGGAUUCCUCGUCACUCAGCAGGGCAUCUCUGAGAGAAAUGCC", "note": "[A59U A64U]", "self-cleavage": 0.62},
      {"variant": "UACGUAGGUGGUUUUCCCCUGAUAGUGCUAAGGGGGCCUGGAAGUUUGGACUGGGCAGAGCUCAACACAGCGUGGCAAAGCGGCAGUGGCUAGACUGCCUCUCUGGAUUCCUCGUCACUCAGCAGGGCAUCUCUGAGAGAAAUGCC", "note": "[U81C U85A]", "self-cleavage": 0.16},
      {"variant": "UACGUAGGUGGUUUUCCCCUGAUAGUGCUAAGGGGGCCUGGAAGUUUGGACUGGGCAGAGCUCAACACAGCGUGGCAAAGUGGCUGCGGCUAGACUGCCUCUCUGGAUUCCUCGUCACUCAGCAGGGCAUCUCUGAGAGAGAUGCC", "note": "[U87C A141G]", "self-cleavage": 0.24},
      {"variant": "UACGUAGGUGGUUUUCCCCUGAUAGUGCUAAGGGGGCCUGGAAGUUUGGACUGGGCAGAGCUCAACACAGCGUGGCAAAGUGGCUGUGGCUAGACUGCCUCUCUGGAUUCCUCGUCACUCGGCAGGGCAUCUCUGAGCGAAAUGCC", "note": "[A121G A138C]", "self-cleavage": 1.71}
    ]}
  ]
}
